Substitutions are numbered along the chain they refer to.
B1: 40769p2.1.E5 scFv-Fc (scFv, part only; not given: Linker, domain order, Fc, V domains shown, not shown: another chain or arm of the molecule; a dimerising Fc or GST; small tags and cut ends)
VH: EVQLLESGGGLVQPGGSLRLSCTASAHIFKYNWMSWVRQAPGKGLEWVSSINSDGTITYYTDSVKGRFTISRDNSKNTLYLQMNSLRAEDTAVYYCAKDNWNDYAIDVWGQGTTVTVSS
VL: QSVLTQPPSASGTPGQRVTISCSGSRSDIRNNYVSWYQQLPGTAPKLLIYSNGQRPSGVPDRFSGSKSGTSASLAISGLQSEDEADYYCAIWDDSLNAWVFGGGTKLTVL
B2: 40769p2.1.E1 scFv-Fc (scFv, part only; not given: Linker, domain order, Fc, V domains shown, not shown: another chain or arm of the molecule; a dimerising Fc or GST; small tags and cut ends)
VH: EVQLLESGGGLIQPGGSLRLSCTASGFDFSSYGMHWVRQAPGKGLEWVAIISDSGGTTYYGDSVKGRFTISRDNSKSTLYLQMNSLRAEDTALYYCASYIMDVWGQGTTVTVSS
VL: QSVLTQPPSASGTPEQRVTISCSGSNSNVGDNAVYWYQQLPGTAPKLLFYGTNRRPSGVPDRFSGSKSGTSASLAISGLQSEDEADYYCAAWDDSLNAWVFGGGTKLTVL
B3: 40769p2.1.G4 scFv-Fc (scFv, part only; not given: Linker, domain order, Fc, V domains shown, not shown: another chain or arm of the molecule; a dimerising Fc or GST; small tags and cut ends)
VH: EVQLLESGGGLVQPGGSLRLSCAASGFTFTSHDMNWVRQAPGKGLEWVSTITTGGNTYYADSVKGRFTISRDNSKNTLYLQMTSLRAEDTAVYYCTKHYSMDVWGQGTTVTVSS
VL: B2 VL with E15G, N26T, G30V, D31F, T52K, N53S, R54Q, S95T, A98G
B4: 40769p2.2.D3 scFv-Fc (scFv, V domains shown)
VH: B2 VH with A49G, G61A, S77N, T108I
VL: B2 VL with E15G, D31V, A33S, F49I, T52S, N53G, G65V, D94G, S95G
B5: 40769p2.1.H12 scFv-Fc (scFv, part only; not given: Linker, domain order, Fc, V domains shown, not shown: another chain or arm of the molecule; a dimerising Fc or GST; small tags and cut ends)
VH: B2 VH with A49G, G61A, S77N, T108I
VL: B2 VL with E15G, D31V, A33S, F49I, T52S, N53G, G65V, S95G
B6: 40769p2.1.E8 scFv-Fc (scFv, part only; not given: Linker, domain order, Fc, V domains shown, not shown: another chain or arm of the molecule; a dimerising Fc or GST; small tags and cut ends)
VH: EVQLLESGGGLVQPGGSLRLSCTGFGFTFTDARMSWVRQAPGKGLEWVADISSYGDNTYYADSVKGRFTISRDNSANTLYVQMNSLRAEDTAVYYCAKRMEREVMTIKLDYHAMDVWGQGTTVTVSS
VL: QSVLTQTPSVSGTPGQRVTISCSGVFNIRNYVSWYQQLPGTAPKLLIFKDDQRPSGVPDRFSGSRSGTSASLAISGLQSEDEADYYCAAWDIFLNVWVFGGGTKLTVL
B7: 40769p2.1.C1 scFv-Fc (scFv, part only; not given: Linker, domain order, Fc, V domains shown, not shown: another chain or arm of the molecule; a dimerising Fc or GST; small tags and cut ends)
VH: EVQLLESGGGLVQPGGSLRLSCAASGFSFSDYWMNWVRQAPGKGLEWVSTISSGGNMIYYADSVKGRFTISRDNSKNTLYLRMNSLRAEDTAVYYCAKDNWNDYYGMDVWGQGTTVTVSS
VL: QSVLTQPPSASGTPGQRVTISCSGSSSNIRDNYVYWYQQVPGTAPKLLIYKDDQRPSGVPDRFSGSKSGSSASLAISGLQSEDEADYYCATWDGSLNARVFGGGTKLTVL
B8: 40769p2.2.H4 scFv-Fc (scFv, part only; not given: Linker, domain order, Fc, V domains shown, not shown: another chain or arm of the molecule; a dimerising Fc or GST; small tags and cut ends)
VH: B7 VH with S28D, D31S, N56S, M57I, R67Q, R82Q
VL: B7 VL with L4P, S70T
B9: 40769p2.2.G3 scFv-Fc (scFv, part only; not given: Linker, domain order, Fc, V domains shown, not shown: another chain or arm of the molecule; a dimerising Fc or GST; small tags and cut ends)
VH: EVQLLESGGGLVQPGGSLRLSCTASGITFSRFNMFWVRQAPGKGLEFVASIRDDGSWTYYADSVKGQFTISRDNSKNTLYLQMNSLRAEDTAVYYCAKDYSSKDFIYHYVMDVWGQGTTVTVSS
VL: QSVLTQPPSASGTPGQRVTISCSGRNSNIGNNVVNWYQQLPGTAPKLLIYRNQERPSGVPDRFSGSKSGTSASLAISGLQSEDEADYYCASWDDSLNAWVFGRGTKLTVL

Biological target: His-tagged mouse CD38 (ACRO Biosystems CD8-M5223) (mouse) (UniProt P56528)
Assay: ELISA, 1 ug/ml scFv-Fc, coated His-tagged CD38

Row | Binder | ELISA signal
1 | B1 | 0.045
2 | B2 | 1.53
3 | B3 | 2.1
4 | B4 | 0.044
5 | B5 | 1.37
6 | B6 | 0.046
7 | B7 | 0.048
8 | B8 | 0.045
9 | B9 | 0.044

Biological target: His-tagged human CD38 (ACRO Biosystems CD8-H5224) (human) (UniProt P28907)
Assay: ELISA, 1 ug/ml scFv-Fc, coated His-tagged CD38

Row | Binder | ELISA signal
10 | B1 | 1.96
11 | B2 | 2.04
12 | B3 | 1.81
13 | B5 | 2.01
14 | B6 | 1.79
15 | B7 | 2.42
16 | B8 | 1.67
17 | B9 | 1.7

Biological target: His-tagged cynomolgus monkey CD38 (ACRO Biosystems, CD8-05223 [sic]) (cynomolgus monkey) (UniProt Q5VAN0)
Assay: ELISA, 1 ug/ml scFv-Fc, coated His-tagged CD38

Row | Binder | ELISA signal
18 | B1 | 2.1
19 | B2 | 2.04
20 | B3 | 2.31
21 | B5 | 2.29
22 | B6 | 2.16
23 | B7 | 2.35
24 | B8 | 1.47
25 | B9 | 1.46

Biological target: Murine CD38 on transiently transfected Expi293 cells (Origene MC208001) (murine) (UniProt P56528)
Assay: flow cytometry, 10 ug/ml scFv-Fc, transfected Expi293 cells

Row | Binder | FACS percent gated
26 | B1 | 3.13%
27 | B2 | 23.7%
28 | B3 | 42.4%
29 | B5 | 22.9%
30 | B6 | 1.99%
31 | B8 | 1.43%
32 | B9 | 1.46%

Biological target: Human CD38 on transiently transfected Expi293 cells (Origene SC321273) (human) (UniProt P28907)
Assay: as above

Row | Binder | FACS percent gated
33 | B1 | 76.3%
34 | B2 | 75.4%
35 | B3 | 77%
36 | B5 | 77.1%
37 | B6 | 75.7%
38 | B7 | 74.9%
39 | B8 | 92.5%
40 | B9 | 92.1%

Source: patent publication US20220306762A1
